These binders were tested against T1, human PDL1 antigen (human, UniProt Q9NZQ7 19-238) (assay: Biacore (SPR), Fab arm in a bsAb; value told in the text).
T1 construct: they are put here

Kd [nM]	Binder
0.86	αPDL1×αCD28 bsAb with PDL1 binding domain 2G4_H1.12_L1.66 and CD28 binding domain 1A7_H1.14_L1.71 (bispecific antibody) heavy: EVQLLESGGGLVQPGGSLRLSCAASGFTFSVYDMSWVRQAPGKRLEWVSTISSGGSFTHYPDSVKGRFTISRDNSKNTLYLQMNSLRAEDTAVYYCVRRSLDWYFDVWGAGTTVTVSSASTKGPSVFPLAPSSKSTSGGTAALGCLVKDYFPEPVTVSWNSGALTSGVHTFPAVLQSSGLYSLSSVVTVPSSSLGTQTYICNVNHKPSDTKVDKKVEPKSCDKTHTCPPCPAPPVAGPSVFLFPPKPKDTLMISRTPEVTCVVVDVKHEDPEVKFNWYVDGVEVHNAKTKPREEEYNSTYRVVSVLTVLHQDWLNGKEYKCKVSNKALPAPIEKTISKAKGQPREPQVYTLPPSREEMTKNQVSLTCDVSGFYPSDIAVEWESDGQPENNYKTTPPVLDSDGSFFLYSKLTVDKSRWEQGDVFSCSVMHEALHNHYTQKSLSLSPGK scFv-Fc: not shown light: EIVLTQSPGTLSLSPGERATLSCRVSSSIQSTNLHWYQQKPGQSPRPLIYGTSNLATGVPVRFSGSGSGTDYTLTISRLEPEDFAVYYCQQWSSYPLYTFGGGTKVEIKRTVAAPSVFIFPPSDEQLKSGTASVVCLLNNFYPREAKVQWKVDNALQSGNSQESVTEQDSKDSTYSLSSTLTLSKADYEKHKVYACEVTHQGLSSPVTKSFNRGEC
0.17	αPDL1×αCD28 bsAb with PDL1 binding domain 2G4_H1.12_L1.24 and CD28 binding domain 1A7_H1.14_L1.71 (bispecific antibody, also called XENP38512; XENP40036) heavy: EVQLLESGGGLVQPGGSLRLSCAASGFTFSVYDMSWVRQAPGKRLEWVSTISSGGSFTHYPDSVKGRFTISRDNSKNTLYLQMNSLRAEDTAVYYCVRRSLDWYFDVWGAGTTVTVSSASTKGPSVFPLAPSSKSTSGGTAALGCLVKDYFPEPVTVSWNSGALTSGVHTFPAVLQSSGLYSLSSVVTVPSSSLGTQTYICNVNHKPSDTKVDKKVEPKSCDKTHTCPPCPAPPVAGPSVFLFPPKPKDTLMISRTPEVTCVVVDVKHEDPEVKFNWYVDGVEVHNAKTKPREEEYNSTYRVVSVLTVLHQDWLNGKEYKCKVSNKALPAPIEKTISKAKGQPREPQVYTLPPSREEMTKNQVSLTCDVSGFYPSDIAVEWESDGQPENNYKTTPPVLDSDGSFFLYSKLTVDKSRWEQGDVFSCSVMHEALHNHYTQKSLSLSPGK scFv-Fc: not shown light: EIVLTQSPGTLSLSPGERATLSCRVSSSIQSTNLHWYQQKPGQSPRPLIYGTSVLATGVPVRFSGSGSGTDYTLTISRLEPEDFAVYYCQQWSSYPLYTFGGGTKVEIKRTVAAPSVFIFPPSDEQLKSGTASVVCLLNNFYPREAKVQWKVDNALQSGNSQESVTEQDSKDSTYSLSSTLTLSKADYEKHKVYACEVTHQGLSSPVTKSFNRGEC
0.42	αPDL1×αCD28 bsAb with PDL1 binding domain 2G4_H1.12_L1.14 and CD28 binding domain 1A7_H1.14_L1.71 (bispecific antibody, also called XENP40409 (non-Xtend analog of XENP40706)) heavy: EVQLLESGGGLVQPGGSLRLSCAASGFTFSVYDMSWVRQAPGKRLEWVSTISSGGSFTHYPDSVKGRFTISRDNSKNTLYLQMNSLRAEDTAVYYCVRRSLDWYFDVWGAGTTVTVSSASTKGPSVFPLAPSSKSTSGGTAALGCLVKDYFPEPVTVSWNSGALTSGVHTFPAVLQSSGLYSLSSVVTVPSSSLGTQTYICNVNHKPSDTKVDKKVEPKSCDKTHTCPPCPAPPVAGPSVFLFPPKPKDTLMISRTPEVTCVVVDVKHEDPEVKFNWYVDGVEVHNAKTKPREEEYNSTYRVVSVLTVLHQDWLNGKEYKCKVSNKALPAPIEKTISKAKGQPREPQVYTLPPSREEMTKNQVSLTCDVSGFYPSDIAVEWESDGQPENNYKTTPPVLDSDGSFFLYSKLTVDKSRWEQGDVFSCSVMHEALHNHYTQKSLSLSPGK scFv-Fc: not shown light: EIVLTQSPGTLSLSPGERATLSCRVSSSIQSSNLHWYQQKPGQSPRPLIYGTSNLASGVPVRFSGSGSGTDYTLTISRLEPEDFAVYYCQQWSSYPLYTFGGGTKVEIKRTVAAPSVFIFPPSDEQLKSGTASVVCLLNNFYPREAKVQWKVDNALQSGNSQESVTEQDSKDSTYSLSSTLTLSKADYEKHKVYACEVTHQGLSSPVTKSFNRGEC
0.8	αPDL1×αCD28 bsAb with PDL1 binding domain 2G4_H1.12_L1.68 and CD28 binding domain 1A7_H1.14_L1.71 (bispecific antibody) heavy: EVQLLESGGGLVQPGGSLRLSCAASGFTFSVYDMSWVRQAPGKRLEWVSTISSGGSFTHYPDSVKGRFTISRDNSKNTLYLQMNSLRAEDTAVYYCVRRSLDWYFDVWGAGTTVTVSSASTKGPSVFPLAPSSKSTSGGTAALGCLVKDYFPEPVTVSWNSGALTSGVHTFPAVLQSSGLYSLSSVVTVPSSSLGTQTYICNVNHKPSDTKVDKKVEPKSCDKTHTCPPCPAPPVAGPSVFLFPPKPKDTLMISRTPEVTCVVVDVKHEDPEVKFNWYVDGVEVHNAKTKPREEEYNSTYRVVSVLTVLHQDWLNGKEYKCKVSNKALPAPIEKTISKAKGQPREPQVYTLPPSREEMTKNQVSLTCDVSGFYPSDIAVEWESDGQPENNYKTTPPVLDSDGSFFLYSKLTVDKSRWEQGDVFSCSVMHEALHNHYTQKSLSLSPGK scFv-Fc: not shown light: EIVLTQSPGTLSLSPGERATLSCRVSSSIQSTNLHWYQQKPGQSPRPLIYGTSNLASGVPVRFSGSGSGTDYTLTISRLEPEDFAVYYCQQWSSYPLYTFGGGTKVEIKRTVAAPSVFIFPPSDEQLKSGTASVVCLLNNFYPREAKVQWKVDNALQSGNSQESVTEQDSKDSTYSLSSTLTLSKADYEKHKVYACEVTHQGLSSPVTKSFNRGEC

What follows are binders tested against T2, human CD28 (human, UniProt P10747 19-152) (assay: Octet (BLI), scFv arm in the bsAb; value told in the text).
T2 construct: also called Cluster of Differentiation 28; Tp44

Kd [nM]	Binder
37	XENP37561 (bispecific antibody, 1+1 Fab-scFv-Fc format; scFv in VL-linker-VH orientation; also called αPDL1×αCD28 bsAb; 1A7_L1.71_H1.14) heavy: EVQLLESGGGLVQPGGSLRLSCAASGFTFSSYDMSWVRQAPGKRLEWVSTISSGGSFTHYPDSVKGRFTISRDNSKNTLYLQMNSLRAEDTAVYYCVRRSGDWYFDVWGAGTTVTVSSASTKGPSVFPLAPSSKSTSGGTAALGCLVKDYFPEPVTVSWNSGALTSGVHTFPAVLQSSGLYSLSSVVTVPSSSLGTQTYICNVNHKPSDTKVDKKVEPKSCDKTHTCPPCPAPPVAGPSVFLFPPKPKDTLMISRTPEVTCVVVDVKHEDPEVKFNWYVDGVEVHNAKTKPREEEYNSTYRVVSVLTVLHQDWLNGKEYKCKVSNKALPAPIEKTISKAKGQPREPQVYTLPPSREEMTKNQVSLTCDVSGFYPSDIAVEWESDGQPENNYKTTPPVLDSDGSFFLYSKLTVDKSRWEQGDVFSCSVMHEALHNHYTQKSLSLSPGK scFv-Fc: not shown light: EIVLTQSPGTLSLSPGERATLSCRVSSSISSSNLHWYQQKPGQSPRPLIYGTSNLASGVPVRFSGSGSGTDYTLTISRLEPEDFAVYYCQQWSSYPLYTFGGGTKVEIKRTVAAPSVFIFPPSDEQLKSGTASVVCLLNNFYPREAKVQWKVDNALQSGNSQESVTEQDSKDSTYSLSSTLTLSKADYEKHKVYACEVTHQGLSSPVTKSFNRGEC
96	XENP37560 (bispecific antibody, 1+1 Fab-scFv-Fc format; also called αPDL1×αCD28 bsAb; 1A7_H1.1_L1.71) heavy: EVQLLESGGGLVQPGGSLRLSCAASGFTFSSYDMSWVRQAPGKRLEWVSTISSGGSFTHYPDSVKGRFTISRDNSKNTLYLQMNSLRAEDTAVYYCVRRSGDWYFDVWGAGTTVTVSSASTKGPSVFPLAPSSKSTSGGTAALGCLVKDYFPEPVTVSWNSGALTSGVHTFPAVLQSSGLYSLSSVVTVPSSSLGTQTYICNVNHKPSDTKVDKKVEPKSCDKTHTCPPCPAPPVAGPSVFLFPPKPKDTLMISRTPEVTCVVVDVKHEDPEVKFNWYVDGVEVHNAKTKPREEEYNSTYRVVSVLTVLHQDWLNGKEYKCKVSNKALPAPIEKTISKAKGQPREPQVYTLPPSREEMTKNQVSLTCDVSGFYPSDIAVEWESDGQPENNYKTTPPVLDSDGSFFLYSKLTVDKSRWEQGDVFSCSVMHEALHNHYTQKSLSLSPGK scFv-Fc: not shown light: EIVLTQSPGTLSLSPGERATLSCRVSSSISSSNLHWYQQKPGQSPRPLIYGTSNLASGVPVRFSGSGSGTDYTLTISRLEPEDFAVYYCQQWSSYPLYTFGGGTKVEIKRTVAAPSVFIFPPSDEQLKSGTASVVCLLNNFYPREAKVQWKVDNALQSGNSQESVTEQDSKDSTYSLSSTLTLSKADYEKHKVYACEVTHQGLSSPVTKSFNRGEC
286	XENP37412 (bispecific antibody, 1+1 Fab-scFv-Fc format; scFv in VL-linker-VH orientation; also called αPDL1×αCD28 bsAb; 1A7_L1_H1.14) heavy: EVQLLESGGGLVQPGGSLRLSCAASGFTFSSYDMSWVRQAPGKRLEWVSTISSGGSFTHYPDSVKGRFTISRDNSKNTLYLQMNSLRAEDTAVYYCVRRSGDWYFDVWGAGTTVTVSSASTKGPSVFPLAPSSKSTSGGTAALGCLVKDYFPEPVTVSWNSGALTSGVHTFPAVLQSSGLYSLSSVVTVPSSSLGTQTYICNVNHKPSDTKVDKKVEPKSCDKTHTCPPCPAPPVAGPSVFLFPPKPKDTLMISRTPEVTCVVVDVKHEDPEVKFNWYVDGVEVHNAKTKPREEEYNSTYRVVSVLTVLHQDWLNGKEYKCKVSNKALPAPIEKTISKAKGQPREPQVYTLPPSREEMTKNQVSLTCDVSGFYPSDIAVEWESDGQPENNYKTTPPVLDSDGSFFLYSKLTVDKSRWEQGDVFSCSVMHEALHNHYTQKSLSLSPGK scFv-Fc: not shown light: EIVLTQSPGTLSLSPGERATLSCRVSSSISSSNLHWYQQKPGQSPRPLIYGTSNLASGVPVRFSGSGSGTDYTLTISRLEPEDFAVYYCQQWSSYPLYTFGGGTKVEIKRTVAAPSVFIFPPSDEQLKSGTASVVCLLNNFYPREAKVQWKVDNALQSGNSQESVTEQDSKDSTYSLSSTLTLSKADYEKHKVYACEVTHQGLSSPVTKSFNRGEC
180	XENP37559 (bispecific antibody, 1+1 Fab-scFv-Fc format; also called αPDL1×αCD28 bsAb; 1A7_H1_L1.71) heavy: EVQLLESGGGLVQPGGSLRLSCAASGFTFSSYDMSWVRQAPGKRLEWVSTISSGGSFTHYPDSVKGRFTISRDNSKNTLYLQMNSLRAEDTAVYYCVRRSGDWYFDVWGAGTTVTVSSASTKGPSVFPLAPSSKSTSGGTAALGCLVKDYFPEPVTVSWNSGALTSGVHTFPAVLQSSGLYSLSSVVTVPSSSLGTQTYICNVNHKPSDTKVDKKVEPKSCDKTHTCPPCPAPPVAGPSVFLFPPKPKDTLMISRTPEVTCVVVDVKHEDPEVKFNWYVDGVEVHNAKTKPREEEYNSTYRVVSVLTVLHQDWLNGKEYKCKVSNKALPAPIEKTISKAKGQPREPQVYTLPPSREEMTKNQVSLTCDVSGFYPSDIAVEWESDGQPENNYKTTPPVLDSDGSFFLYSKLTVDKSRWEQGDVFSCSVMHEALHNHYTQKSLSLSPGK scFv-Fc: not shown light: EIVLTQSPGTLSLSPGERATLSCRVSSSISSSNLHWYQQKPGQSPRPLIYGTSNLASGVPVRFSGSGSGTDYTLTISRLEPEDFAVYYCQQWSSYPLYTFGGGTKVEIKRTVAAPSVFIFPPSDEQLKSGTASVVCLLNNFYPREAKVQWKVDNALQSGNSQESVTEQDSKDSTYSLSSTLTLSKADYEKHKVYACEVTHQGLSSPVTKSFNRGEC
240	XENP36233 (bispecific antibody, 1+1 Fab-scFv-Fc format, heterodimeric IgG1 Fc with FcγR ablation variants; also called αPDL1×αCD28 bsAb; 2G4 H1L1 Fab × 1A7_H1.14_L1 scFv) heavy: EVQLLESGGGLVQPGGSLRLSCAASGFTFSSYDMSWVRQAPGKRLEWVSTISSGGSFTHYPDSVKGRFTISRDNSKNTLYLQMNSLRAEDTAVYYCVRRSGDWYFDVWGAGTTVTVSSASTKGPSVFPLAPSSKSTSGGTAALGCLVKDYFPEPVTVSWNSGALTSGVHTFPAVLQSSGLYSLSSVVTVPSSSLGTQTYICNVNHKPSDTKVDKKVEPKSCDKTHTCPPCPAPPVAGPSVFLFPPKPKDTLMISRTPEVTCVVVDVKHEDPEVKFNWYVDGVEVHNAKTKPREEEYNSTYRVVSVLTVLHQDWLNGKEYKCKVSNKALPAPIEKTISKAKGQPREPQVYTLPPSREEMTKNQVSLTCDVSGFYPSDIAVEWESDGQPENNYKTTPPVLDSDGSFFLYSKLTVDKSRWEQGDVFSCSVMHEALHNHYTQKSLSLSPGK scFv-Fc: not shown light: EIVLTQSPGTLSLSPGERATLSCRVSSSISSSNLHWYQQKPGQSPRPLIYGTSNLASGVPVRFSGSGSGTDYTLTISRLEPEDFAVYYCQQWSSYPLYTFGGGTKVEIKRTVAAPSVFIFPPSDEQLKSGTASVVCLLNNFYPREAKVQWKVDNALQSGNSQESVTEQDSKDSTYSLSSTLTLSKADYEKHKVYACEVTHQGLSSPVTKSFNRGEC

— patent US20220135684A1 (Xencor, published 2022)
